Data published in patent US6596319B2, “Immunomodulating compositions for treatment of immune system disorders” (Lorus Therapeutics Inc., priority 2001, dated 2003).
Read-outs that look alike come from different tables or passages of the source.

Tests used:
[1] = system: Chang hepatoma cells; test: Monocyte/Macrophage Cytotoxicity Assay to cell line (51Cr release); conditions: peripheral blood monocytes from cancer patients; activator + Indomethacin (up to 5 ng/ml)
[2] = system: peritoneal macrophages; test: In vitro stimulation of protease peptone peritoneal macrophages: TNF (ELISA); assay type: cell-based, C57BL/6 mice; conditions: stimulant alone; 24 hours of in vitro culture
Procedure: (§1) Peritoneal macrophages were harvested from C57BL/6 mice 72 hours after intraperitoneal injection of 1.5 ml of 4% protease peptone. The macrophages were then stimulated in vitro with medium alone, 50 ng LPS, or VIRULIZIN™. Measurements of the stimulation was done with respect to TNF (by ELISA) and NO (by spectrophotometric assay using the Greiss reagent) levels in duplicate experiments. Standard error of the mean between duplicate experiments was less than 10%. […] Nitric oxide production was zero.
In vitro synergy of Virulizin™ with LPS for TNF-α release was also addressed. Peritoneal macrophages were harvested from C57BL/6 mice after the same aforementioned treatment. The macrophages were then stimulated with 50 ng LPS alone or LPS with different dilutions of VIRULIZIN™. As above, TNF was determined via ELISA. As noted in Table XIX, LPS alone induces about 2900 pg/ml of TNF-α release from mouse peritoneal macrophages in vitro compared to 262 pg/ml for medium. When LPS is combined with VIRULIZIN™, there is about an 800 pg/ml increase in TNF-alpha release at dilutions of VIRULIZIN™ 1:5 and 1:10 and enhanced release to at least 1:40.
In vitro synergy of Virulizin™ with IFN-γ for TNF-α release was studied, using the same peritoneal mouse macrophages derived from C57BL/6 mice treated as above. […] The same macrophages stimulated with either LPS or IFN-γ release almost 3000 pg/ml of TNF-α. […]

[3] = system: peritoneal macrophages; test: In vitro stimulation of protease peptone peritoneal macrophages: NO (Greiss reagent); assay type: cell-based, C57BL/6 mice; conditions: stimulant alone
Procedure: as §1
In vitro synergy of Virulizin™ with LPS for nitric oxide (NO) was addressed in the same procedure as above, except NO was determined in the supernatant of the treated macrophages. As above, the assay for NO is spectrophotometric and uses a Greiss reagent. As noted in the table above, LPS causes some release of NO (9 μm). VIRULIZIN™ in synergy with LPS induces a marked increase in NO production (13-27 μm) to dilutions of 1:40.
In vitro synergy of Virulizin™ with IFN-γ for NO release was studied, using the same peritoneal mouse macrophages derived from C57BL/6 mice treated as above. The data are included in the table above concerning “Synergistic Combinations.” As shown, LPS and IFN-γ alone each enhanced NO production (9 and 7 μm, respectively). VIRULIZIN™ added to IFN-γ induced a marked increase in NO production (47-57 μm) that almost equaled the combination of LPS and IFN-γ (74 μM). […]

[4] = system: peritoneal macrophages; test: NO release from macrophages harvested from treated mice; assay type: in vivo, C57BL/6 mice; conditions: mice injected with nothing; in vitro stimulant IFN-γ
Procedure: (§2) In vivo production of TNF-α over 72 hours was studied on macrophages harvested from C57BL/6 mice that, prior to harvest, were treated with nothing, injected intraperitoneally 72 hours previously with 1.5 and 4% protease peptone, or injected intraperitoneally 72, 48, or 24 hours previously with 1.0 ml Virulizin™ diluted 1:10 in PBS. The macrophage monolayers were treated in vitro for 24 hours with IFN-γ (50 μ/ml), LPS only (5 ng/ml), or the combination thereof. TNF and NO were determined as recited above.
In vivo production of NO over 72 hrs was studied with macrophage cells and tests under the same conditions described above with respect to TNF-α production. There was a small spontaneous release of NO measured at 24 and 48 hrs after intraperitoneal injection of VIRULIZIN™ (hereinafter IP Virulizin™). […] The harvested macrophages that had received IP VIRULIZIN™ 72 hrs before responded no differently than macrophages that had no VIRULIZIN™ pretreatment. […] The maximum response was with macrophages pretreated with VIRULIZIN™ 48 hrs before harvesting and testing.

[5] = system: peritoneal macrophages; test: TNF release from macrophages harvested from treated mice; assay type: in vivo, C57BL/6 mice; conditions: mice injected with nothing; in vitro stimulant IFN-γ, 24 hours
Procedure: as §2
As described, the release of TNF-α from macrophages was examined in the absence of a stimulus or with IFN-γ, LPS, or LPS/IFN-γ after 24 hrs in vitro culture. […] Likewise, there was a synergistic effect of LPS and IFN-γ on harvested macrophages that were stimulated 24 and 48 hrs but not 72 hrs before testing.

[6] = system: autologous tumor cells
Procedure: The method requires isolation of monocytes/macrophages phages, which is accomplished as follows: Venous blood is collected aseptically in heparinized Vacutainer tubes. Sterile preservative-free heparin is added to a final concentration of 20 units/ml. The blood is diluted 3:1 in Hanks balanced salt solution (HBSS), layered onto lymphocyte separation medium and centrifuged to obtain a band of peripheral blood mononuclear cells (PBMNs). After centrifugation, the mononuclear cell layer is recovered from the interface, washed twice in medium (medium is Roswell Park Memorial Institute [RPMI] 1640 media supplemented with 10% heat-inactivated fetal bovine serum, 50 units/ml penicillin, and 50 μg/ml streptomycin) and monocytes are enumerated by latex ingestion. Monocytes are isolated by adherence in 96-well plastic plates (for 2 hours at 37° C., followed by two cycles of washing with medium). Adherent cells are estimated to be greater than 90% monocytes. […] The tumor cells are maintained in medium in which endotoxin concentration is guaranteed by the manufacturer to be low and is non-stimulatory in the assay.
For studies using autologous tumor cells, these cells are obtained from surgical biopsies, labelled with ^51C, and used in the same way as the hepatoma cells described above. […]

[7] = system: Chang hepatoma cells
Procedure: This procedure has been named the “Monocyte/Macrophage Cytotoxicity Assay to Cell Lines and Autologous Tumor Cells,” or “Cytotoxicity Assay” for short.
The method requires isolation of monocytes/macrophages phages, which is accomplished as follows: Venous blood is collected aseptically in heparinized Vacutainer tubes. Sterile preservative-free heparin is added to a final concentration of 20 units/ml. The blood is diluted 3:1 in Hanks balanced salt solution (HBSS), layered onto lymphocyte separation medium and centrifuged to obtain a band of peripheral blood mononuclear cells (PBMNs). After centrifugation, the mononuclear cell layer is recovered from the interface, washed twice in medium (medium is Roswell Park Memorial Institute [RPMI] 1640 media supplemented with 10% heat-inactivated fetal bovine serum, 50 units/ml penicillin, and 50 μg/ml streptomycin) and monocytes are enumerated by latex ingestion. Monocytes are isolated by adherence in 96-well plastic plates (for 2 hours at 37° C., followed by two cycles of washing with medium). […]
For studies using a standard cell line, ^51Cr (chromium) labelled Chang hepatoma cells are used because this cell line is insensitive to natural killer cell cytotoxicity. […] After 24 hours, supernatants are collected and ^51Cr release is quantitated. The percent specific cytotoxicity is calculated as: [formula] […]

For “GM-CSF: granulocyte macrophage colony stimulating factor”, which “% Cytotoxicity” value [1] is on record?
The value was 17.8 ± 8%.

Which results are given for IFN-γ: gamma interferon?
TNF-α release [2]: ~3000 pg/mL; NO production [3]: 7 μm; NO [4]: 25.8 ± 1.6 µM; TNF [5]: 402 pg/mL

How did the “% Tumor Cytotoxicity (E/T = 15/1)” value [6] turn out when Interleukin-12: interleukin-12 was run?
Its value is 11%.

B1: Monocyte-CSF: monocyte colony stimulating factor (protein, UniProt P09603 33-554, looked up)
Macrophage colony-stimulating …: EEVSEYCSHMIGSGHLQSLQRLIDSQMETSCQITFEFVDQEQLKDPVCYLKKAFLLVQDIMEDTMRFRDNTPNAIAIVQLQELSLRLKSCFTKDYEEHDKACVRTFYETPLQLLEKVKNVFNETKNLLDKDWNIFSKNCNNSFAECSSQDVVTKPDCNCLYPKAIPSSDPASVSPHQPLAPSMAPVAGLTWEDSEGTEGSSLLPGEQPLHTVDPGSAKQRPPRSTCQSFEPPETPVVKDSTIGGSPQPRPSVGAFNPGMEDILDSAMGTNWVPEEASGEASEIPVPQGTELSPSRPGGGSMQTEPARPSNFLSASSPLPASAKGQQPADVTGTALPRVGPVRPTGQDWNHTPQKTDHPSALLRDPPEPGSPRISSLRPQGLSNPSTLSAQPQLSRSHSSGSVLPLGELEGRRSTRDRRSPAEPEGGPASEGAARPLPRFNSVPLTDTGHERQSEGSFSPQLQESVFHLLVPSVILVLLAVGGLLFYRWRRRSHQEPQRADSPLEQPEGSPLTQDDRQVELPV
With B1 as the molecule, how does the “% Tumor Cytotoxicity (E/T = 15/1)” value [6] read?
Its value is 3%.

What about the “% Cytotoxicity” value [7] of the same molecule?
The value was 14.31 ± 3%.
